Tests used:
human separase [1] = experiment: Rebinding of recombinant securin to mitotically activated separase immunoprecipitates; format: binding; conditions: separase activated in mitotic Xenopus extracts, mostly cleaved form
Description: (§1) 30 microliter beads were incubated with 40 μg bacterially expressed wildtype securin, destruction box deleted form of securin (Gmachl et al., 2000) or BSA diluted in XB+1 mM DTT for 40 min at RT. Subsequently the beads were washed with XB+1 mM DTT and with TBS+0.5 M NaCl+1 mM DTT+0.5% TWEEN20, followed by one wash with XB+1 mM DTT. To control the rebinding of securin an aliquot of 5 μl was taken per assay and subsequently analysed by immunoblotting with antibodies against separase and securin.
FIG. 1A: Separase immunoprecipitates (separase IP) obtained from Nocodazole arrested HeLa cells and bound by antibodies against the C-terminus of separase coupled to beads were activated in mitotic Xenopus egg extracts (separase IP^mitotic). Mitotically activated separase immunoprecipitates were either incubated in buffer, wildtype securin, destruction box deleted securin or in BSA. Aliquots were taken and analysed by immunoblotting with antibodies against separase and securin.
Target sequence in this assay (Q14674 1-1486 limits assumed): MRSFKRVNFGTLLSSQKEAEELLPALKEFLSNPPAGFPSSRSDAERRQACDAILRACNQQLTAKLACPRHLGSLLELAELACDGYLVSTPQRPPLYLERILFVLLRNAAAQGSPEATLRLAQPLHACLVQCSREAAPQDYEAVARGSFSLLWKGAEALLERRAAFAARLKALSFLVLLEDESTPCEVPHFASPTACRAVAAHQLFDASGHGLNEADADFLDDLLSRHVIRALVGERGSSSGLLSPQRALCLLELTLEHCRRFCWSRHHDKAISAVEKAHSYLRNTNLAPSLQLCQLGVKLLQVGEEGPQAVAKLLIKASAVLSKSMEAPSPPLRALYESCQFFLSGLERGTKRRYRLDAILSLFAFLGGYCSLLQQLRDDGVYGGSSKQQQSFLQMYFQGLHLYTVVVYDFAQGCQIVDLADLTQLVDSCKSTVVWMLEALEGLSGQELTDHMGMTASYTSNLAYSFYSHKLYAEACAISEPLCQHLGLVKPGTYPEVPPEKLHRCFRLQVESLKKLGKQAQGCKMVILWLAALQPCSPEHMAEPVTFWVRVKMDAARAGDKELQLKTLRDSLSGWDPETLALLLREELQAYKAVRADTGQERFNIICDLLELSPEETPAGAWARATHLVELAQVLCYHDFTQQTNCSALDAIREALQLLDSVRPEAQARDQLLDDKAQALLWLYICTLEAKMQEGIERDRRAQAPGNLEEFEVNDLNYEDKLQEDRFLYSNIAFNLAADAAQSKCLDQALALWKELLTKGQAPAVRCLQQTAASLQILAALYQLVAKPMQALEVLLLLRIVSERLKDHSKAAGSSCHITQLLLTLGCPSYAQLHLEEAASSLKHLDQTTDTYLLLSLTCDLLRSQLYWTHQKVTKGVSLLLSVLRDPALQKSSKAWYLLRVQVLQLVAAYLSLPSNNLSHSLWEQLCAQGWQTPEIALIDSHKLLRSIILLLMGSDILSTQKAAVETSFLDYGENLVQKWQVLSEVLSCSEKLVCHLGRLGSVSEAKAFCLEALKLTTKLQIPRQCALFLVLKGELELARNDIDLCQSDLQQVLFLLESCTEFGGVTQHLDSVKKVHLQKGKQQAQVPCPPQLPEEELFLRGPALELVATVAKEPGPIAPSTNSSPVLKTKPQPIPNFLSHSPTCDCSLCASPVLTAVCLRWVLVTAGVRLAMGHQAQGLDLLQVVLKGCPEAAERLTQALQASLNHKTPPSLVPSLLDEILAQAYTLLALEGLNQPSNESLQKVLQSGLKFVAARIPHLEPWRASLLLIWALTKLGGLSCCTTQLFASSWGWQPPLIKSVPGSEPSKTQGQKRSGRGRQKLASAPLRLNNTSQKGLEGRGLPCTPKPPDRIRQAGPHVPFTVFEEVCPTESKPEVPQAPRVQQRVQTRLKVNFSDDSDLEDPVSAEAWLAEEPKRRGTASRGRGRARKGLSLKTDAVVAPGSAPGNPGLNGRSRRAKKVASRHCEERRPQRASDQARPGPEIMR
Target sequence in this assay (Q14674 1536-2120 limits assumed): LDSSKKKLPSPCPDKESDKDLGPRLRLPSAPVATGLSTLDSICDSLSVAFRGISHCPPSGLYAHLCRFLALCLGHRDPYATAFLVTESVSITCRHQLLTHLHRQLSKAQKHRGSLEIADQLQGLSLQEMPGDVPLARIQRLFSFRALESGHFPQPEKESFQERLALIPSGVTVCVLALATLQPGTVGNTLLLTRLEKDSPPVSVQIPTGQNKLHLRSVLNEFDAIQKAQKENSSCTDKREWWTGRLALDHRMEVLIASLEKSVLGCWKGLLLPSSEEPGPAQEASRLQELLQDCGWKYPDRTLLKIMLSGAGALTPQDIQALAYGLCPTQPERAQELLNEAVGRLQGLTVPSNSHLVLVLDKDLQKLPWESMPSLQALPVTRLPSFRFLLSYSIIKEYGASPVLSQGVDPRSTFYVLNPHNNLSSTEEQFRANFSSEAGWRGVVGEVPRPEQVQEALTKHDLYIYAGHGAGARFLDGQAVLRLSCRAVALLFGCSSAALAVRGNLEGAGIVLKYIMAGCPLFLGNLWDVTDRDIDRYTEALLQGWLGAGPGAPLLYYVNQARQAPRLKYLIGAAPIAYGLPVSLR

human separase [2] = experiment: Covalent labelling of separase forms by biotin peptide (avidin blot); format: binding; conditions: recombinant securin bound to cleaved active separase, then human peptide inhibitor (FIG. 4D)
Description: (§2) B. Separase immunoprecipitates were incubated with 100 μM Biotin-SVEQGR-amk or with DMSO prior mitotic activation. Incubation for 10 minutes, 22° C. and 1000 rpm. After washing twice in XB+1 mM DTT the activation was performed in mitotic Xenopus egg extracts.
Interphase Xenopus egg extracts were driven into mitosis in the presence of 1 mM Biotin-SVEQGR-amk or DMSO. Those mitotic Xenopus egg extracts were used to activate a batch of separase immunoprecipitates.
Biotin labeled peptides were detected via immunoblotting according to Faleiro et al., 1997.
C. […] After 10 min incubation at 22° C. and 1250 rpm beads were again washed and analyzed by immunoblotting.
FIG. 4B: Separase IPs (see A) were either preincubated with Biotin-SVEQGR-amk (preinc. with inh. peptide) or with DMSO (preinc. with DMSO), subsequently washed and aliquots were taken. […] All samples were analysed by immunoblotting with avidin.
FIG. 4D: Activated separase immunoprecipitates bound by antibodies against the C-terminus of separase to beads were first incubated with recombinant securin or, for control, with recombinant truncated cyclinB. […] Thereafter, the immunoprecipitates were again washed and analyzed by immunoblotting.
Target sequence in this assay (Q14674 1536-2120 limits assumed): as above

human separase [3] = experiment: SCC1 in vitro cleavage assay; format: biochemical; conditions: substance added to mitotically activated separase immunoprecipitates before SCC1-myc reaction mix
Description: as §1
Target sequence in this assay (Q14674 1536-2120 limits assumed): as above
The beads were used for the SCC1 in vitro cleavage assay: 20 μl beads were mixed with 30 μl of the following SCC1 in vitro translation mix (SCC1 myc IVT+1 μl PLK-GST+0.3 μl […], 0.3 μl 100 mM ATP, 0.12 μl 250 mM EGTA, 13.78 μl XB+1 mM DTT) and incubated at 22° C. and 1200 rpm. 5 μl were taken per time point, the reaction was stopped by addition of SDS loading buffer. Samples were analyzed by immunoblotting with mouse monoclonal antibodies against myc (9E10).
as §2
Interphase Xenopus egg extracts were driven into mitosis in the presence of 1 mM Biotin-SVEQGR-amk or DMSO. […]

binding of securin to separase (human separase [1]): able to bind to separase
SCC1 cleavage by separase (human separase [3]): no cleavage of SCC1 was detected
B1: WT-securin: human securin expressed in E. coli and purified, the wildtype protein (protein)
chain: MATLIYVDKENGEPGTRVVAKDGLKLGSGPSIKALDGRSQVSTPRFGKTFDAPPALPKATRKALGTVNRATEKSVKTKGPLKQKQPSFSAKKMTEKTVKAKSSVPASDDAYPEIEKFFPFNPLDFESFDLPEEHQIAHLPLSGVPLMILDEERELEKLFQLGPPSPVKMPSPPWESNLLQSPSSILSTLDVELPPVCCDIDI
binding of peptide inhibitors to the active site of separase (human separase [2]): prevented the binding of peptide inhibitors to the active site of separase

Source: US20020164620A1, “Method for identifying compounds modulating sister chromatid separation” (Boehringer Ingelheim International GmbH, priority 2001, published 2002)
